Measured values from the MegaScale stability set (Tsuboyama et al. 2023).

B1: EHEE_rd4_0726 (parent)
chain: DIEITTNGEEDAKRVIKELQKRNLEYHIEVHGNQWVIKVR

Variants of: B1
Test: folding stability dG (cDNA display proteolysis); higher = more stable
Conditions: PBS, room temperature

Variant	folding stability dG [kcal/mol]
DIEITTNGEEDAKRVIKELQKRTLEYHIEVHGNQWVIKVR [N23T]	1.2
DIEITTNGEEDAKRVIKELQKRYLEYHIEVHGNQWVIKVR [N23Y]	1.67
DIEITTNGEEDAKRVIKELQKRWLEYHIEVHGNQWVIKVR [N23W]	1.51
DIEITTNGEEDAKRVIKELQKRVLEYHIEVHGNQWVIKVR [N23V]	1.09
DIEITTNGEEDAKRVIKELQKRNLEWHIEVHGNQWVIKVR [Y26W]	1.95
DIEITTNGEEDAKRVIKELQKRNLESHIEVHGNQWVIKVR [Y26S]	0.005
DIEITTNGEEDAKRVIKELQKRNLEPHIEVHGNQWVIKVR [Y26P]	0.491
DIEITTNGEEDAKRVIKELQKRNLETHIEVHGNQWVIKVR [Y26T]	0.301
DIEITTNGEEDAKRVIKELQKRNLEVHIEVHGNQWVIKVR [Y26V]	1.42
DIEITTNGEEDAKRVIKELQKRNLELHIEVHGNQWVIKVR [Y26L]	1.35
DIEITTNGEEDAKRVIKELQKRNLEAHIEVHGNQWVIKVR [Y26A]	1.07
DIEITTNGEEDAKRVIKELQKRNLEFHIEVHGNQWVIKVR [Y26F]	2.54
DIEITTNGEEDAKRVIKELQKRNLEHHIEVHGNQWVIKVR [Y26H]	0.887
DIEITTNGEEDAKRVIKELQKRNLEGHIEVHGNQWVIKVR [Y26G]	0.722
DIEITTNGEEDAKRVIKELQKRNLEIHIEVHGNQWVIKVR [Y26I]	1.53
DIEITTNGEEDAKRVIKELQKRNLEMHIEVHGNQWVIKVR [Y26M]	1.13
DIEITTNGEEDAKRVIKELQKRNPEYHIEVHGNQWVIKVR [L24P]	-0.114
DIEITTNGEEDAKRVIKELQKRNEEYHIEVHGNQWVIKVR [L24E]	1.01
DIEITTNGEEDAKRVIKELQKRNIEYHIEVHGNQWVIKVR [L24I]	2.46
DIEITTNGEEDAKRVIKELQKRNQEYHIEVHGNQWVIKVR [L24Q]	1.45
DIEITTNGEEDAKRVIKELQKRNMEYHIEVHGNQWVIKVR [L24M]	2.19

Variant	folding stability dG [kcal/mol]
DIEITTNGEEDAKRVIKELQKRNHEYHIEVHGNQWVIKVR [L24H]	1.13
DIEITTNGEEDAKRVIKELQKRNVEYHIEVHGNQWVIKVR [L24V]	2.19
DIEITTNGEEDAKRVIKELQKRNDEYHIEVHGNQWVIKVR [L24D]	0.415
DIEITTNGEEDAKRVIKELQKRNGEYHIEVHGNQWVIKVR [L24G]	0.458
DIEITTNGEEDAKRVIKELQKRNYEYHIEVHGNQWVIKVR [L24Y]	1.89
DIEITTNGEEDAKRVIKELQKRNAEYHIEVHGNQWVIKVR [L24A]	1.7
DIEITTNGEEDAKRVIKELQKRNREYHIEVHGNQWVIKVR [L24R]	1.65
DIEITTNGEEDAKRVIKELQKRNSEYHIEVHGNQWVIKVR [L24S]	1.04
DIEITTNGEEDAKRVIKELQKRNKEYHIEVHGNQWVIKVR [L24K]	1.67
DIEITTNGEEDAKRVIKELQKRNNEYHIEVHGNQWVIKVR [L24N]	0.681
DIEITTNGEEDAKRVIKELQKRNWEYHIEVHGNQWVIKVR [L24W]	2.05
DIEITTNGEEDAKRVIKELQKRNTEYHIEVHGNQWVIKVR [L24T]	1.14
DIEITTNGEEDAKRVIKELQKRNFEYHIEVHGNQWVIKVR [L24F]	1.81
DIEITTNGEEDAKRVIKELQKRNLEYEIEVHGNQWVIKVR [H27E]	2.66
DIEITTNGEEDAKRVIKELQKRNLEYNIEVHGNQWVIKVR [H27N]	2.17
DIEITTNGEEDAKRVIKELQKRNLEYAIEVHGNQWVIKVR [H27A]	2.34
DIEITTNGEEDAKRVIKELQKRNLEYGIEVHGNQWVIKVR [H27G]	1.59
DIEITTNGEEDAKRVIKELQKRNLEYDIEVHGNQWVIKVR [H27D]	2.48
DIEITTNGEEDAKRVIKELQKRNLEYFIEVHGNQWVIKVR [H27F]	2.57
DIEITTNGEEDAKRVIKELQKRNLEYIIEVHGNQWVIKVR [H27I]	2.84
DIEITTNGEEDAKRVIKELQKRNLEYKIEVHGNQWVIKVR [H27K]	2.46

Variant	folding stability dG [kcal/mol]
DIEITTNGEEDAKRVIKELQKRNLEYLIEVHGNQWVIKVR [H27L]	2.37
DIEITTNGEEDAKRVIKELQKRNLEYCIEVHGNQWVIKVR [H27C]	2.6
DIEITTNGEEDAKRVIKELQKRNLEYMIEVHGNQWVIKVR [H27M]	2.54
DIEITTNGEEDAKRVIKELQKRNLGYHIEVHGNQWVIKVR [E25G]	2.04
DIEITTNGEEDAKRVIKELQKRNLHYHIEVHGNQWVIKVR [E25H]	2.7
DIEITTNGEEDAKRVIKELQKRNLMYHIEVHGNQWVIKVR [E25M]	2.52
DIEITTNGEEDAKRVIKELQKRNLSYHIEVHGNQWVIKVR [E25S]	2.67
DIEITTNGEEDAKRVIKELQKRNLAYHIEVHGNQWVIKVR [E25A]	2.53
DIEITTNGEEDAKRVIKELQKRNLPYHIEVHGNQWVIKVR [E25P]	2.33
DIEITTNGEEDAKRVIKELQKRNLNYHIEVHGNQWVIKVR [E25N]	2.28
DIEITTNGEEDAKRVIKELQKRNLWYHIEVHGNQWVIKVR [E25W]	2.52
DIEITTNGEEDAKRVIKELQKRNLTYHIEVHGNQWVIKVR [E25T]	2.66
DIEITTNGEEDAKRVIKELQKRNLRYHIEVHGNQWVIKVR [E25R]	2.58
DIEITTNGEEDAKRVIKELQKRNLKYHIEVHGNQWVIKVR [E25K]	2.76
DIEITTNGEEDAKRVIKELQKRNLDYHIEVHGNQWVIKVR [E25D]	2.31
DIEITTNGEEDAKRVIKELQKRNLYYHIEVHGNQWVIKVR [E25Y]	2.43
DIEITTNGEEDAKRVIKELQKRNLIYHIEVHGNQWVIKVR [E25I]	2.66
DIEITTNGEEDAKRVIKELQKRNLLYHIEVHGNQWVIKVR [E25L]	2.6
DIEITTNGEEDAKRVIKELQKRNLQYHIEVHGNQWVIKVR [E25Q]	2.6
DIEITTNGEEDAKRVIKELQKRNLVYHIEVHGNQWVIKVR [E25V]	2.58
DIEITTNGEEDAKRVIKELQKRNLFYHIEVHGNQWVIKVR [E25F]	2.49
